From article PMC3634489

Key:
[1] = target: 2A1 IgA of the combination HCα1-LCλ-JC (heavy chain α1 without KDEL, λ light chain, co-expressed J chain) (human) (UniProt P01591); assay: SEC
[2] = target: 2A1 IgA of the combination HCα1-LCλ-JC (heavy chain α1 without KDEL, λ light chain, co-expressed J chain) (human) (UniProt P01591); assay: ELISA; […]) capture antibody, […]
[3] = target: 2A1 IgA of the combination HCα1-LCλ-JC (heavy chain α1 without KDEL, λ light chain, co-expressed J chain) (human) (UniProt P01591); assay: ELISA

UniProt P01591, sequence (P01591 whole entry, looked up): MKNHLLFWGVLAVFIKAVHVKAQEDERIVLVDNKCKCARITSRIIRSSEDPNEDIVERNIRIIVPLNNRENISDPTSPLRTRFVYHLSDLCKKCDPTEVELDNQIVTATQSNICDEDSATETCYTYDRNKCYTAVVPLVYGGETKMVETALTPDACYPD

percent of total IgA content as sIgA [1]: 20%
percent of total HC in the sIgA complex [2]: > 33%
percent of total HC in the sIgA complex [3]: 21%
Substance: secretory component with a C-terminal KDEL signal (SCkdel) (from UniProt P01833 19-638) (domain or fragment)
